Article PMC10180619 (Nature Communications, 2023)

Molecular target: T1, SARS-CoV-2 WT (Wuhan-1) receptor binding domain (SARS-CoV-2, Wuhan-Hu-1, UniProt P0DTC2, biotin (EZ-Link Sulfo-NHS-LC-Biotin, average of four biotins per RBD molecule))
T1 construct: source: bought: Acro Biosystems (Cat #SPD-C52H3)
Assay: BLI
Settings: both partners purified

B1: ADI-81654 (Fab, V domains shown)
VH: QVQLKQSGPTLVKPTQTLTLTCTFSGFSLSTYGVGVGWIRQPPGKALEWLALIYYDDDKRYSPSLKSRLTITKDTSQNQVVLTMTNMDPVDTATYYCARHTIATIFDFDSWGQGTLVTVSS
VL: QSVLTQPASVSGSPGQSITISCTGTSSDVGGHNYVSWYQQHPGKAPKLMIYEVSNRPSGVSNRFSGSKSGNTASLTISGLQAEDEADYSCSSYASSTSPVVFGGVTKLTVL
  Kd: 56 nM
